Assay results: article PMC11480844

B1: H2-Kb / B16 (parent)
chain 1: QQQVRQSPQSLTVWEGGTTVLTCSYEDSTFNYFPWYQQFPGEGPALLISILSVSDKKEDGRFTTFFNKREKKLSLHIIDSQPGDSATYFCAARGSALGRLHFGAGTQLIVIP
chain 2: EAAVTQSPRSKVAVTGGKVTLSCHQTNNHDYMYWYRQDTGHGLRLIHYSYVADSTEKGDIPDGYKASRPSQENFSLILELASLSQTAVYFCASSDGTNQAPLFGEGTRLSVL
chain 3: not shown
chain 4: IQKTPQIQVYSRHPPENGKPNILNCYVTQFHPPHIEIQMLKNGKKIPKVEMSDMSFSKDWSFYILAHTEFTPTETDTYACRVKHDSMAEPKTVYWDRDM
chain 5: SIINFEKL
B2: H2-Kb / G2 (parent)
chain 1: GEQVEQRPPHLSVREGDSAVIICTYTDPNSYYFFWYKQEPGAGLQLLMKVFSSTEINEGQGFTVLLNKKDKQLSLNLTAAHPGDSAVYFCAVRTNQGGRALIFGTGTTVSVSP
chain 2: EAAVTQSPRSKVAVTGGKVTLSCHQTNNHDYMYWYRQDTGHGLRLIHYSYVADSTEKGDIPDGYKASRPSQENFSLILELASLSQTAVYFCASSGTDTEVFFGKGTRLTVV
chain 3: not shown
chain 4: B1 chain 4
chain 5: SIINFEKL
B3: H2-Kb / H6 (parent)
chain 1: AQKVTQTQTSISVMEKTTVTMDCVYETQDSSYFLFWYKQTASGEIVFLIRQDSYKKENATVGHYSLNFQKPKSSIGLIITATQIEDSAVYFCAMRDYNQGKLIFGQGTKLSIKP
chain 2: EAAVTQSPRSKVAVTGGKVTLSCHQTNNHDYMYWYRQDTGHGLRLIHYSYVADSTEKGDIPDGYKASRPSQENFSLILELASLSQTAVYFCASSGTAANSDYTFGSGTRLLVI
chain 3: not shown
chain 4: B1 chain 4
chain 5: SIINFEKL

Variants of: B1
Assay: % of reporter cells activated (NFAT-GFP), raw
Conditions: with B16; scale: % of reporter cells activated
Also: test concentration or dose not given here.

Ratio to parent, by site and new letter:
chain 5 K7: V 0.823 | W 0.496 | N 0.823 | T 0.665 | C 1.33 | L 1.03 | S 0.657 | G 1.06 | E 1.16 | P 1.02 | A 1.29 | R 0.488 | H 1.21 | Y 0.996 | I 1.41 | F 1.01 | M 0.921 | Q 1.39 | D 0.886
chain 5 L8: K 0.827 | Y 1.24 | S 0.65 | C 0.996 | T 0.787 | H 1.1 | W 0.689 | R 1.28 | A 0.921 | M 0.799 | Q 1.04 | G 1.26 | I 0.602 | N 0.744 | E 0.547 | D 0.823 | V 0.697 | P 1.36 | F 0.579
chain 5 I3: Y 1.33 | P 2.05 | F 1.11 | T 1.24 | D 1.13 | W 1.08 | G 1.22 | A 1.55 | C 1.52 | M 1.4 | Q 1.5 | K 1.44 | L 1.28 | H 1.38 | V 1.07 | R 0.807 | N 1.37 | E 1.3 | S 1.5
chain 5 S1: K 1.38 | W 0.941 | L 1.11 | V 1.16 | N 1.09 | Y 1.56 | G 1.43 | R 0.846 | F 1.35 | H 1.37 | Q 1.28 | A 1.54 | D 1.29 | M 1.08 | I 1.35 | C 1.57 | E 1.26 | T 1.36 | P 1.3
chain 5 N4: M 1.21 | A 1.39 | W 1.13 | H 1.26 | G 1.35 | C 1.2 | K 1.37 | D 1.19 | F 0.909 | R 0.969 | L 1.48 | T 1.04 | Y 0.87 | P 1.25 | E 1.25 | S 1.09 | V 1.14 | Q 0.992 | I 1.25
chain 5 I2: W 1.35 | R 0.921 | K 1.52 | S 1.34 | M 1.11 | T 1.34 | L 1.51 | Y 1.3 | Q 1.21 | V 1.33 | N 1.26 | P 1.48

Variants of: B2
Assay: % of reporter cells activated (NFAT-GFP), raw
Conditions: with G2; scale: % of reporter cells activated

Ratio to parent: each site, then its substitutions
chain 5 N4: G 0.976 | C 1.02 | M 1.09 | Q 1.18 | A 1.13 | W 2.17 | R 0.952 | E 0.928 | T 0.904
chain 5 K7: C 1.88 | Y 1.22 | A 1.58 | F 1.94 | I 1.83 | N 1.18 | E 1.46 | Q 1.12 | D 1.29 | V 1.13 | L 2.32 | W 1.34
chain 5 E6: V 1.7 | D 1.28 | A 1.9 | N 1.39 | M 1.15 | I 1.02
chain 5 L8: M 2.01 | A 1.06 | E 0.696 | V 1.32 | N 1.54 | S 1.15 | I 1.04 | K 1.4 | H 1.78
chain 5 I2: Y 1.54 | N 1.11 | E 1.41 | K 1.16 | D 1.58 | T 1.56 | S 1.32 | F 1.32 | Q 1.13 | W 1.18 | P 1.65
chain 5 I3: A 1.42 | R 0.8 | E 1.55 | N 1.53 | H 1.18 | F 1.19 | C 1.38 | G 1.39
chain 5 F5: V 1.42 | P 1.42 | M 1.31 | R 0.864 | L 1.46 | S 0.88 | T 1.06 | E 1.34 | K 1.36 | A 1.38
chain 5 S1: D 1.62 | A 1.7 | M 1.6 | H 1.26 | G 1.47 | R 1.02 | I 1.45 | C 1.31 | T 1.07 | N 1.55

Variants of: B3
Assay: % of reporter cells activated (NFAT-GFP), raw
Conditions: with H6; scale: % of reporter cells activated

Ratio to parent of substitutions, site by site:
chain 5 E6: A 0.0933 | C 0.0748 | G 0.168 | T 0.0942 | D 0.365 | Y 0.0997 | R 0.097 | W 0.084 | I 0.0822 | V 0.0536 | Q 0.0813 | P 0.0822 | K 0.131 | L 0.0813 | N 0.102 | F 0.11 | H 0.0877 | S 0.107 | M 0.0896
chain 5 I2: Y 0.408 | F 0.733 | H 0.243 | A 1.5 | M 0.624 | C 1.27 | L 1.29 | G 0.956 | R 0.281 | S 1.56 | K 0.24 | P 0.351 | T 1.49 | E 1.09 | V 1.54 | W 0.585 | Q 0.385 | N 0.541 | D 1.01
chain 5 S1: W 0.292 | C 0.188 | K 0.384 | N 0.416 | H 0.446 | F 0.276 | D 1.53 | V 0.294 | Q 0.602 | T 0.524 | G 0.517 | A 0.556 | P 0.141 | L 0.355 | M 0.536 | I 0.338 | E 0.709 | R 0.333 | Y 0.424
chain 5 L8: Y 0.729 | E 0.214 | I 0.888 | K 0.13 | Q 0.131 | R 0.406 | D 0.209 | N 0.433 | G 0.36 | T 0.521 | W 0.248 | S 0.129 | A 0.199 | M 0.538 | C 0.28 | H 0.825 | V 0.537 | P 0.26 | F 0.32
chain 5 K7: D 0.0822 | S 0.0877 | Q 0.102 | E 0.122 | N 0.0979 | M 0.188 | I 0.231 | T 0.111 | F 0.111 | C 0.125 | W 0.129 | A 0.097 | G 0.072 | L 0.112 | H 0.809 | P 0.11 | R 1.36 | V 0.261 | Y 0.162
chain 5 F5: Y 0.516 | N 0.446 | E 0.163 | I 0.711 | P 0.546 | L 0.863 | D 0.192 | M 1.14 | K 0.173 | W 0.795 | G 0.381 | R 0.248 | A 0.809 | V 0.796 | H 0.777 | T 0.694 | C 1.01 | Q 0.495 | S 0.6
chain 5 I3: Y 0.236 | Q 1.11 | K 0.236 | T 0.955 | P 1.18 | R 0.295 | L 1.02 | W 0.281 | C 1.57 | V 1.57 | E 1.19 | N 1.09 | A 1.33 | S 0.872 | F 0.342 | D 0.149 | M 1.62 | H 0.61 | G 0.962
chain 5 N4: P 0.519 | M 0.111 | R 0.102 | E 0.2 | V 0.0988 | G 0.445 | W 0.672 | Y 0.358 | A 0.202 | S 0.295 | H 0.91 | C 0.206 | K 0.126 | Q 0.117 | T 0.143 | L 0.146 | F 0.335 | D 0.132 | I 0.116
